From the RNAGym collection of RNA variant scans (doi:10.1073/pnas.2313332121) come the findings set out here.

B1: TPR t1 (parent)
chain: GACCAAUCUGCCCUCAGAGCUCGAGAACAUCUUCGGAUGCAGAGGAGGCAGGCUUCGGUGGCGCGAUAGCGCCAACGUCCUCAACCUCCAAUGCAUCCCACCACAUGAUGAUGCCUGAAGAGCCUUGGUUUUUUG

The variants in the data set derive from B1. Put plainly: polymerase ribozyme fitness, log enrichment relative to wild type (log ratio); higher = more active; in vitro selection for triplet polymerase activity. The method, boiled down: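 A heterodimeric triplet polymerase ribozyme had each of its subunits mutagenized by PCR into a library, which was transcribed. One round of in vitro selection, done in triplicate, annealed each library with a biotinylated primer, its partner subunit and triplets, then incubated it frozen at −7 °C before gel excision of extended constructs, streptavidin-bead capture and RT-PCR. Fitness is the logarithm of genotype enrichment relative to wild-type enrichment, based on Illumina sequencing of inputs and outputs and inverse-variance-weighted replicate averages. A base-2 logarithm is used, and genotypes were kept only with ≥10 input reads and ≥1 read per output.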
In the case of A37C A43G, the “polymerase ribozyme fitness (log ratio)” value was -2.56.

As for C56A C85G U92C, the “polymerase ribozyme fitness (log ratio)” value was -4.74.

As to C40A C79G, the “polymerase ribozyme fitness (log ratio)” value is -3.35. In the case of C34G C64A U116C G117U it was -7.25; in that of C73G C123G, 1.2; in that of U9G C13A G110A, -1.62.

In the case of C56G A74U G110A U116G C124G G135U, the “polymerase ribozyme fitness (log ratio)” value was -5.19. Under U59C C80A U81A stands -2.03; under A43C C53A A95U U109A U130G, -7.32. Regarding A43U G63A A95G G120U G128U, the “polymerase ribozyme fitness (log ratio)” value is -4.88.

Take G39A G117C: the “polymerase ribozyme fitness (log ratio)” value is -4.05. In the case of U9C C64A U67A C73U C85U G120C it was -6.47; in that of C70U C97U, -0.226; in that of U7A C11G G44U A50G C94U U96A G117A, -1.92. For the variant A6U A83U C115U, the “polymerase ribozyme fitness (log ratio)” value was -1.65.

C73U C94U U129A: the “polymerase ribozyme fitness (log ratio)” value is -1.17. In the case of A43U C114G it was -3.27; in that of C99U G113A G117A, -5.78.

With A43C C49A, the “polymerase ribozyme fitness (log ratio)” value is -3.08.

With U9A C88U U92A, the “polymerase ribozyme fitness (log ratio)” value was -2.44. As to A41U C72A G113C, the “polymerase ribozyme fitness (log ratio)” value is -2.13. In the case of G71C U87G C98U G113C it was -4.17.

Regarding C8A C104A A105C C124G U126G, the “polymerase ribozyme fitness (log ratio)” value is -3.52. Consider G48U G71U U96C, for which the “polymerase ribozyme fitness (log ratio)” value is -1.48. In the case of C31G G52U G77A G117U it was -6.19; in that of C8U A16U G47A C56A C101A C124U, -1.44; in that of G45C A68G U112A A118U, -4.16. Under G19U G71A U78A stands -4.64; under C62A U112C, 0.245; under C64U G107U U130C, -6.04. In the case of G10U A18U A29U U54A C73A A121C it was -1.7.

As to C13U G51C, the “polymerase ribozyme fitness (log ratio)” value is -2.27.

For the variant C3A C70U, the “polymerase ribozyme fitness (log ratio)” value is -1.64. Under C64U C114G C115A C123G C124A stands -4.37. In the case of U14G C49U G93C C101A it was -4.35; in that of C11G U59C, 1.4. In the case of U14C A18G C49G G61A G69A G113A it was -5.84; in that of C20U A27U C64U G113A, -3.6; in that of G71U C104A U126C, -3.21. Take C72U C101G G120C: the “polymerase ribozyme fitness (log ratio)” value was -1.35. In the case of G63C G120U it was -0.189; in that of C72U C94G C101A, -2.57. Turning to C49G G57C G58C G63U, the “polymerase ribozyme fitness (log ratio)” value is -3.06. Under A5U C11A G63A G93U stands -2.91. Regarding C4A A74G, the “polymerase ribozyme fitness (log ratio)” value was -1.14.

With C72A U125A, the “polymerase ribozyme fitness (log ratio)” value was -0.026. Under U7A U87A G127A stands -1.5; under G48U U109G, -4.7. With G71U G93U C104U A119G, the “polymerase ribozyme fitness (log ratio)” value came out at 0.516. In the case of C4U G58A C124U it was 0.263; in that of U30C C73U, -2.48; in that of A2U A100U U116C, -3.73. Under C49G C73G stands -1.7; under G58A C72G C82A G110C G113A, -6.33. In the case of A68C U78G U112A it was -7.68; in that of U9G G60C U116A, -1.45; in that of C8A G63U A119U, -1.39. For the variant G52A A74U C80U, the “polymerase ribozyme fitness (log ratio)” value was -1.78. In the case of C49U G61A it was -0.0564. In the case of C80U C101U it was -0.367; in that of C13G G47C A95C, -4.32; in that of A66G U78C U87G, -0.388. Turning to C31U C89G, the “polymerase ribozyme fitness (log ratio)” value was -5.1.

Turning to C70U A111C, the “polymerase ribozyme fitness (log ratio)” value was -0.279. As to A43U C53A U129A, the “polymerase ribozyme fitness (log ratio)” value is -4.05.

As for C8U U96A C123G, the “polymerase ribozyme fitness (log ratio)” value worked out at 1.65. Under C8U C13A C20A U59A G113A C123G stands -1.9. Under A43C G69U C99U stands -3.77. Under G10A C22G G61U A95U stands -3.63; under G63U G113A, -1.99; under C8U G63A, 0.00664. As to C89U G127C, the “polymerase ribozyme fitness (log ratio)” value is -1.79.

Regarding A37U C40G G63A A66G C82A U109G, the “polymerase ribozyme fitness (log ratio)” value was -6.22. In the case of G10C C13A C82U A83C it was -0.888; in that of C12G G44A G63A U112G G122U G135U, -2.91. Consider C15U U21A G63U, for which the “polymerase ribozyme fitness (log ratio)” value is -2.12.

Take A37U G51A A100C U112A: the “polymerase ribozyme fitness (log ratio)” value is -5.37. As for U54G C56G A83C G120U, the “polymerase ribozyme fitness (log ratio)” value was -1.88. In the case of C15U U106A it was -1.69; in that of G45A G52U C79U A95C A121C, -0.812. Under C49G C72A stands -0.887. Under C12G U30C C70A stands -4.46; under C13A A16U U116G, -1.13. In the case of G17C, the “polymerase ribozyme fitness (log ratio)” value is -3.67. On to C4U C88A, for which the “polymerase ribozyme fitness (log ratio)” value was -0.437.

For C12A G77A, the “polymerase ribozyme fitness (log ratio)” value is -0.669.

Turning to C15G U112G G122A, the “polymerase ribozyme fitness (log ratio)” value was -1.95. In the case of A24C C102U it was -6.73; in that of G61A A84U G93C G128A, -3.36.

On to G42A G47C C82U A84G, for which the “polymerase ribozyme fitness (log ratio)” value was -3.91. In the case of U32A G117A it was -5.64; in that of U54G C64U, -3.4; in that of G19U C53G A91G, -3.77.

Consider G10C C12A U54C G122A, for which the “polymerase ribozyme fitness (log ratio)” value worked out at 0.0391. In the case of G110A C124U it was -0.567. As for C53U U96G G113C, the “polymerase ribozyme fitness (log ratio)” value was -2.77. Under C15U C64A C79A C98A G117U stands -6.93; under C34A C86A, -3.67. As for A41U A43U U54G G93A U106G, the “polymerase ribozyme fitness (log ratio)” value is -3.16. Under U32C C56A stands -1.29; under C28A G39U U54C, -4.55. In the case of C11G C72G A91C it was -0.65; in that of G23A A43C A84G U87C G117U, -6.59; in that of A46U C62U A91U A103G U106A C114U, -5.16. Regarding C56A U78G, the “polymerase ribozyme fitness (log ratio)” value is -0.153. Under G60C U112A stands 0.838; under G10U G58U U78C G122A C124U, 0.946; under U9G G19U G44A G58C, -3.46. Take U7G U21A A26G G47U C123U U129A U133G: the “polymerase ribozyme fitness (log ratio)” value was -3.24.

C12A C31U A83C: the “polymerase ribozyme fitness (log ratio)” value was -5.06. Under C4G G47A C79A A90G G120A stands -3.84; under U21G G39A, -1.39.

With A6C U7C C56U A91G U106G G120U, the “polymerase ribozyme fitness (log ratio)” value was -4.11. Under C34U C94G stands -5.95. Under G63A C89A U131G stands -3.23; under C13G U21C C49U C53G G117A A119G, -5.71. In the case of C4U C8G C28A G35U G48C C49G C64U C88U A103G A111U, the “polymerase ribozyme fitness (log ratio)” value is -6.13.

Regarding C64U A118G, the “polymerase ribozyme fitness (log ratio)” value is -1.18. Consider C8U C34A A119G, for which the “polymerase ribozyme fitness (log ratio)” value is -1.9.

For G36A G42U C53U U55G C86U G110U, the “polymerase ribozyme fitness (log ratio)” value is -6.5.

Take G10C A29C G61C C123U U125A G135A: the “polymerase ribozyme fitness (log ratio)” value was -4.26. In the case of A2G C34A A46G C73A it was -2.49. Take G52U U87A: the “polymerase ribozyme fitness (log ratio)” value is -1.25.

Take G42A G60C C82A: the “polymerase ribozyme fitness (log ratio)” value is -3.4. In the case of C8G C11U U21C U132A it was -0.171; in that of C70U C82U, -1.59. Under C8G G17C A29U U87G G120A stands -2.2; under C4A A119C G120A G127U, -0.47; under C3G C88U U106C, -2.72.

On to G61U C82G C85U A119U, for which the “polymerase ribozyme fitness (log ratio)” value is -0.891.

In the case of U67C C114U, the “polymerase ribozyme fitness (log ratio)” value was -6.64.

As to C79A C88G, the “polymerase ribozyme fitness (log ratio)” value is -2.33. Consider C15A A27C U55A, for which the “polymerase ribozyme fitness (log ratio)” value is -5.44. In the case of C13U G36U U133A it was -1.43; in that of C12U A43U G77A C85U U112A, -0.51. In the case of G122A U126A it was -2.34.

Consider C8G C22G G47A G77U, for which the “polymerase ribozyme fitness (log ratio)” value is -4.32. As for C28U G71U A83U C86G C123G, the “polymerase ribozyme fitness (log ratio)” value is -2.39. With U9C C56G C88G, the “polymerase ribozyme fitness (log ratio)” value was -1.64. Take A50U C56U C73G C88U: the “polymerase ribozyme fitness (log ratio)” value is -3.49.

In the case of C34A U59C G127C, the “polymerase ribozyme fitness (log ratio)” value is -4.66. In the case of C53U A90C C104A A121G C123A it was -2.12; in that of G36U G71A G120U, -1.04; in that of G63C U129C, -2. In the case of A26U A50C U55G it was -4.51. In the case of A18U G71U U92G it was -5.1.

Turning to C13U A27C, the “polymerase ribozyme fitness (log ratio)” value is -2.05. Turning to A18G C20U G93U U109A C115A, the “polymerase ribozyme fitness (log ratio)” value was -5.78. For C8A C12A C34U G39C G61U C85A, the “polymerase ribozyme fitness (log ratio)” value was -7.04. In the case of C56U U132C it was -0.156. In the case of C64G C123U it was -3.63; in that of G45U C94U C101G, -3.3; in that of C13A C94A, -2.07. Under A18C C22U C40U G71U A118U stands -6.12; under G44C G63A C86A, -3.09; under C40U G69C, -1.61. As to C13G C56G C72G C88A G110C, the “polymerase ribozyme fitness (log ratio)” value was -6.47. Consider C62G C82A, for which the “polymerase ribozyme fitness (log ratio)” value was -1.67.

Regarding G23C G93A, the “polymerase ribozyme fitness (log ratio)” value was -6.59.

Turning to C12U C40U G57A G63U C88G A90G, the “polymerase ribozyme fitness (log ratio)” value is -5.54. In the case of C70U G107U it was -4.87; in that of U59A U125A, -0.568. In the case of C11G G57A G58A C62A G63A it was -3.98; in that of C72U G110A U130A, -1.72; in that of G35A U78A, -4.53. In the case of G44C G47A C73G it was -2.76; in that of C49G C123G, 1.3.
